Laboratory results taken from US20220073643A1 (NANJING GENSCRIPT BIOTECH, published 2022).
Positions count from the first letter of the chain named.

B1: 417A6F11 (antibody, V domains shown)
VH: EVQLQQSGPELVKPGASMKISCKASGYSFTGYTMNWVKQSHGKNLEWIGLINPYNGGTSYNQKFKGKATLTVDKSSSTAYMELLSLTSEDSAVYYCARGDYWGQGTTLTVSS
VL: DIVMTQSPSSLTVTAGEKVTMSCKSSQSLLNSGNQKNYLTWYQQKPGQPPKLLIYWASTRESGVPDRFTGSGSGTDFTLTISSVQAEDLAVYYCQNDYSYPTFGAGTKLELK
B2: 406E1H7 (antibody, V domains shown)
VH: DVQLVESGGGLVQPGGSRKLSCAASGFTFSGFGMHWIRQTPEKGLEWVAYISSGSRPIYYADTVQGRFTISRDNPKNTLFLQMTSLRSEDTAMYFCARFYYGNSFDHWGQGTLVTVSS
VL: DIVMTQSPSFLTVTAGEKVTMSCKSSQSLLNSGNQKNYLTWYQQKPGQPPKLLIYWASTRESGVPDRFTGSGSGTDFTLTISSVQAEDLALYYCQNAYSFPLTFGAGTKLELK
B3: 406F11G8 (antibody, V domains shown)
VH: B2 VH with G31S, I37V, T40A, R56S, Q65K, P75S, F99I, D106A, H107Y, S118A
VL: B2 VL with F10S, T20A, S28T, L91V, S99Y, F100Y, A106S
B4: 413C12F8 (antibody, V domains shown)
VH: B2 VH with M34V, S52G, Q65K, S118A
VL: B2 VL with S22N, K24R, K45R
B5: 203A6C9 (antibody, V domains shown)
VH: QVQLKQSGPGLVQPSQSLSITCTVSGFSLTRYGVHWVRQSPGKGLEWLGVIWSGGNTDYNAAFISRLNIRKDNSKSQVFFKMNSLKPNDTAIYYCARAAYFGNSFDYWGQGTTLTVSS
VL: B2 VL with F10S, T12P, E61D, L91V, A97N, S99I, F100Y
B6: 200A4H8 (antibody, V domains shown)
VH: B5 VH
VL: B2 VL with F10S, T12P, E61D, L91V, A97N, S99I, F100Y
B7: 412B6E4 (antibody, V domains shown)
VH: DVQLVESGGGLVQPGGSRKLSCAASGFTFSSFGVHWVRQAPEKGLEWVAYISSGSSTIYYAHSVKGRFTISRDNPKNTLFLQMTSLGSEDTATYYCARFYYGNSFAYWGQGTLVTVSA
VL: B2 VL with F10S, L52M, L91V, S99T, F100Y, K109R
B8: 201F4H6 (antibody, V domains shown)
VH: QVQLKESGPGLVAPSQSLSITCTVSGFSLTSYGVSWVRQPPGKGLECLGVIWAGGNTNYNSALMSRLSISKDKSKSQVFLKMNSLQTDDTAMYYCARVYYGNAMDYWGQGTSVTVSS
VL: B2 VL with F10S, N37S, K45R, L91V, Y93F, A97V, S99F, L102F, A106S, L112T
B9: 407H12E6 (antibody, V domains shown)
VH: B2 VH with F29V, G31S, I37V, T40A, R56S, Q65K, M93I, S118A
VL: B2 VL with F10S, A15T, P49S, A86T, L91V, Y93F, A97N, S99F
B10: 410D9G2 (antibody, V domains shown)
VH: B2 VH
VL: B2 VL
B11: 411A6E3 (antibody, V domains shown)
VH: B2 VH with G31D, Q65K, A97V, Y101F, S118A
VL: B2 VL with S22T, K24R, S28N, Q35L, Y55S, A86P
B12: 416F12F3 (antibody, V domains shown)
VH: B7 VH with V34M, T93M
VL: B2 VL with F10S, M21L, L52M, L91V, S99T, F100Y, K109R
B13: 411G3E10 (antibody, V domains shown)
VH: B2 VH with Q65K, S118A
VL: B2 VL with S22N, K24R
B14: 414A5F7 (antibody, V domains shown)
VH: B7 VH with V34M, T57P, H62D, S63T, G87R, T93M, Y95F, F99I
VL: B2 VL with F10S, T20A, S28T, I54L, L91V, S99Y, F100Y, A106S
B15: 407E11H8 (antibody, V domains shown)
VH: B2 VH with G31D, Q65K, A97V, Y101F, S118A
VL: B2 VL with S22T, K24R, S28N, Q35L, Y55S, A86P
B16: 418B8B10 (antibody, V domains shown)
VH: B2 VH with G31S, I37V, T40A, R56S, A61T, Q65K, S118A
VL: B2 VL with F10S, T20S, L30F, S32R, N37S, K45R, L91V, A97N, S99I, F100Y
B17: 414H6G2 (antibody, V domains shown)
VH: B2 VH with P41A, S118A
VL: B2 VL
B18: 413B1C9 (antibody, V domains shown)
VH: B2 VH with G31S, I37V, T40A, R56S, Q65K, S118A
VL: B2 VL with F10S, A15T, T20S, L30F, S32R, N37S, L91V, A97N, S99I, F100Y
B19: 407A8G10 (antibody, V domains shown)
VH: B2 VH with Q65K, S118A
VL: B2 VL with K24R, K36R, T78A
B20: 409D1A7 (antibody, V domains shown)
VH: B2 VH with Q65K, Q82H, S118A
VL: B2 VL with S22N, K36R, K113N
B21: 411B4G4 (antibody, V domains shown)
VH: B2 VH with M34L, Q65K, S118A
VL: B2 VL with K24R, K36R
B22: 411G12G1 (antibody, V domains shown)
VH: B2 VH with T40A, Q65K, S118A
VL: B2 VL with L91V, A97D
B23: 409G10G6 (antibody, V domains shown)
VH: B2 VH with G54D, Q65K, A97G, S118A
VL: B2 VL with M21L, K24R, K36R, L89R, A106T, K113R
B24: 410A9A9 (antibody, V domains shown)
VH: B7 VH with V34M, T57P, H62D, S63T, G87R, T93M, Y95F, R98T
VL: B2 VL with F10S, S28T, P46S, L91V, F100Y, L102V, A106S, L110V
B25: 407D8G1 (antibody, V domains shown)
VH: B2 VH
VL: B2 VL
B26: 410H6H3 (antibody, V domains shown)
VH: DVLLVESGGGLVQPGGSRKLSCAASGFTFSSSGMHWVRQAPEKGLEWVAYISSGSNTIYYADTLKGRFTISRDNPKNTLFLQMTSLRSEDTAMYYCARIYYGNSFVYWGQGTLVTVSA
VL: B2 VL with F10S, T20I, L52M, T69R, L91V, A97N, S99Y, F100Y, A106T, E111A
B27: 406G3C4 (antibody, V domains shown)
VH: EIQLQQSGPELMKPGASVRISCKASGYSFISYYIYWVKQSHGKGLEWIGYIDPFNGNTNYNQKFKGKATLTVDRSSSTAYIHLNSLTSEDSAVYYCAIVNGYGRGAMDYWGQGTSVTVSS
VL: QIVLTQSPAIMSASPGEKVTMTCSASSSISYMHWYQQKSGTSPKRWIYDTSKLASGVPARFSGSGSGTSYSLTISSMEAEDAATYYCQQWSSNPLTFGDGTKLELK

target: human Claudin18.2 (human); assay: cell-based or functional assay

In order of rising “CDC % Relative activity” value:
1. B18  10.4%
2. B19  23.9%
3. B22  28.5%
4. B16  30.8%
5. B20  33.5%
6. B23  55.6%
7. B15  60.4%
8. B21  68.3%
9. B4  70.9%
10. B13  82.2%
11. B6  84.5%
12. B10  87.9%
13. B3  101%
14. B11  109%
15. B2  125%
16. B8  135%
17. B27  136%
18. B9  143%
19. B12  220%
20. B24  300%
21. B1  440%
22. B7  577%
23. B14  594%
24. B5  600%
25. B17  678%
26. B26  755%
27. B25  849%

In order of falling “CDC EC50” value:
1. B18  26.3 µg/mL
2. B19  10.9 µg/mL
3. B22  9.56 µg/mL
4. B20  7.78 µg/mL
5. B16  5.6 µg/mL
6. B23  4.7 µg/mL
7. B15  4.32 µg/mL
8. B21  3.98 µg/mL
9. B4  3.84 µg/mL
10. B13  3.31 µg/mL
11. B10  2.97 µg/mL
12. B3  2.57 µg/mL
13. B11  2.5 µg/mL
14. B6  2.27 µg/mL
15. B2  2.07 µg/mL
16. B27  1.93 µg/mL
17. B9  1.83 µg/mL
18. B8  1.42 µg/mL
19. B24  0.872 µg/mL
20. B12  0.784 µg/mL
21. B7  0.472 µg/mL
22. B14  0.458 µg/mL
23. B17  0.402 µg/mL
24. B1  0.392 µg/mL
25. B26  0.346 µg/mL
26. B5  0.319 µg/mL
27. B25  0.308 µg/mL
